Source: paper PMC5063366, “Crystal Structure of Saccharomyces cerevisiae ECM4, a Xi-Class Glutathione Transferase that Reacts with Glutathionyl-(hydro)quinones” (PLoS ONE, 2016)

B1: ScECM4 (ECM4 from Saccharomyces cerevisiae, glutathionyl-hydroquinone reductase, Xi-class glutathione transferase) (enzyme, UniProt P36156 1-370, looked up)
chain: MSKQWASGTNGAFKRQVSSFRETISKQHPIYKPAKGRYWLYVSLACPWAHRTLITRALKGLTSVIGCSVVHWHLDEKGWRFLDMEKQLEDSEDFLEHWHDVAGGIRTAKEDSSKSFAEIKNDSQRFMVDATNEPHYGYKRISDLYYKSDPQYSARFTVPVLWDLETQTIVNNESSEIIRILNSSAFDEFVDDDHKKTDLVPAQLKTQIDDFNSWVYDSINNGVYKTGFAEKAEVYESEVNNVFEHLDKVEKILSDKYSKLKAKYGEEDRQKILGEFFTVGDQLTEADIRLYTTVIRFDPVYVQHFKCNFTSIRAGYPFIHLWVRNLYWNYDAFRYTTDFDHIKLHYTRSHTRINPLGITPLGPKPDIRPL
notes: ECM4 (Gto2), Saccharomyces cerevisiae, YKR076W; Homodimer in the crystal; The printed end of the C-terminal domain (E372) probably counts residues added by the XhoI site and vector before the His tag (surmised); also called Gto2; GHR ScECM4; source: E. coli Rosetta2 (DE3) pLysS, purified (Ni-NTA, gel filtration on Superdex 200); not shown: His6, C-terminal, kept
B2: glutathionylated ScECM4 (ScECM4-SG) (enzyme, Saccharomyces cerevisiae, UniProt P36156 1-370, looked up)
chain: MSKQWASGTNGAFKRQVSSFRETISKQHPIYKPAKGRYWLYVSLACPWAHRTLITRALKGLTSVIGCSVVHWHLDEKGWRFLDMEKQLEDSEDFLEHWHDVAGGIRTAKEDSSKSFAEIKNDSQRFMVDATNEPHYGYKRISDLYYKSDPQYSARFTVPVLWDLETQTIVNNESSEIIRILNSSAFDEFVDDDHKKTDLVPAQLKTQIDDFNSWVYDSINNGVYKTGFAEKAEVYESEVNNVFEHLDKVEKILSDKYSKLKAKYGEEDRQKILGEFFTVGDQLTEADIRLYTTVIRFDPVYVQHFKCNFTSIRAGYPFIHLWVRNLYWNYDAFRYTTDFDHIKLHYTRSHTRINPLGITPLGPKPDIRPL
modifications: glutathione covalently bound to C46 (mixed disulfide bond)
notes: ECM4 (Gto2), Saccharomyces cerevisiae, YKR076W; same construct as m1, glutathionylated at C46 after soaking or co-crystallisation with GS-menadione; Same construct as m1, with glutathione on C46; Homodimer in the crystal; source: E. coli Rosetta2 (DE3) pLysS, purified (Ni-NTA, gel filtration); crystals soaked with 5 mM GS-menadione; not shown: His6, C-terminal, kept

What was measured:
[1] = target: T1, ScECM4 (Saccharomyces cerevisiae, UniProt P36156); assay: absorbance loss at […] nm; HPLC of menadione at […] nm; format: biochemical; conditions: GSH 0.05 to 1 mM (spectrophotometry) or 2 mM (HPLC) required; 30 mM Tris-HCl pH 8.0, 1 mM EDTA; room temperature (HPLC)
T1 construct: gene ECM4; full-length, C-terminal His-tag kept (pET-26b NdeI/XhoI), expressed in E. coli Rosetta2 (DE3) pLysS; dimer
T1 sequence (P36156 1-370): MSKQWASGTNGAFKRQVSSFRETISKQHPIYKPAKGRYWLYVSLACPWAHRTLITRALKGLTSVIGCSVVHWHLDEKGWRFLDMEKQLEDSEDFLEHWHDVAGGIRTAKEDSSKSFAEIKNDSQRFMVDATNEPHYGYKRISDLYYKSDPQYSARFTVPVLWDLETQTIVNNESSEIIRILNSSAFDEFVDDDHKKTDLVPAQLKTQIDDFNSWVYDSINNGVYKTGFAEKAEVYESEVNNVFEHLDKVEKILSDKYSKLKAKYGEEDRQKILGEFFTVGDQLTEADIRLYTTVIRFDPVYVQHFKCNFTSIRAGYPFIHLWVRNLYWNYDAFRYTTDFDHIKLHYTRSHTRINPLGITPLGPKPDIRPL

[2] = target: the molecule itself; assay: crystal structure; microbatch under paraffin oil at 278 K, 20% PEG 2000 MME, 0.1 M Tris-HCl pH 7.0; space group P2(1), two monomers in the asymmetric unit; apo crystals and crystals soaked with 5 mM GS-menadione

| Molecule | absorbance loss at 430 nm; HPLC of menadione at 250 nm [1] | stoichiometry N [2] |
| --- | --- | --- |
| CC1=C(SC[C@H](NC(=O)CC[C@H](N)C(=O)O)C(=O)NCC(=O)O)C(=O)c2ccccc2C1=O [GS-menadione] | ScECM4 activity measurements stated for reduction of GS-menadione to menadione in presence of glutathione |  |
| B1 |  | 2 |
| B2 |  | 2 |
